Measurements as given in the supplement of paper PMC7125110.
± gives the standard error. Variants at the floor of the assay were thinned out.

B1: glmS ribozyme (parent)
chain: AUAAAAGCGCCAGAACUACAGAAAUGUAGUUGACGAGGAGGAGGUUUAUCGAAUUUUCGGCGGAUGCCUCCAAA

What was measured:
Conditions in all cases: with glucosamine-6-phosphate
[1] = variants of: B1; assay: self-cleavage kobs at 640 uM GlcN6P; higher = faster cleavage; RNA array
In short: (§1)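 Glucosamine-6-phosphate (40 μM to 10 mM) in HEPES/KCl/Mg(OAc)2 buffer was flowed over sequenced MiSeq chips, and tiles were imaged over ~14 h. Barcoded ribozyme variants there had been transcribed in situ by E. coli RNA polymerase and were tracked through a hybridised Cy3 probe at 37 °C. One- or two-exponential decay fits to per-tile medians, normalised to baseline and to non-cleaving reference variants, gave kobs. kcat and KM came from weighted Michaelis–Menten fits across concentrations.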

[2] = variants of: B1; assay: self-cleavage kobs at 2500 uM GlcN6P; higher = faster cleavage; RNA array
In short: as §1

[3] = variants of: B1; assay: self-cleavage kobs at 10000 uM GlcN6P; higher = faster cleavage; RNA array
In short: as §1

Variant	self-cleavage kobs at 640 uM GlcN6P [1] [s⁻¹]	self-cleavage kobs at 2500 uM GlcN6P [2] [s⁻¹]	self-cleavage kobs at 10000 uM GlcN6P [3] [s⁻¹]
G9C A39U A42C U56G	< 1e-05	–	–
G9A A12U U49A	< 1e-05	< 1e-05	–
C11G C70G	9.08e-05 ± 1.6e-05	5.33e-05 ± 1.4e-05	2.25e-05 ± 9.6e-06
C10A C61G C67G C71G	0.000346 ± 8.8e-05	0.000167 ± 8.1e-05	–
C11A U46G C61G	< 1e-05	< 1e-05	–
C8U G29A G37A A39U C61U A64C	< 1e-05	–	–
C8U A64G C67G	< 1e-05	–	–
C11U A42U U55G G63U C68U	< 1e-05	< 1e-05	–
C10A C11G G35C G44C	< 1e-05	< 1e-05	–
C11A A15G G29A	< 1e-05	–	–
C8A A12C G13A	< 1e-05	–	–
C8U U30A U31C A48U C68U	< 1e-05	< 1e-05	–
C8G G41U C61A	< 1e-05	–	–
C10U G35C G60A	< 1e-05	< 1e-05	–
C11G A39C	< 1e-05	< 1e-05	< 1e-05
G9U G13C G43A	< 1e-05	–	–
C11U G32C C50G A52U	< 1e-05	–	–
C10A U47G	< 1e-05	< 1e-05	–
C11A A14C G44A G66U	< 1e-05	< 1e-05	–
C11G G13C A48G	< 1e-05	< 1e-05	–
G9U G51U C71U	< 1e-05	–	–
G9U G35A G44U A53C C71G	< 1e-05	< 1e-05	–
G9A C10G G44A C70U	< 1e-05	< 1e-05	–

Variant	self-cleavage kobs at 640 uM GlcN6P [1] [s⁻¹]	self-cleavage kobs at 2500 uM GlcN6P [2] [s⁻¹]	self-cleavage kobs at 10000 uM GlcN6P [3] [s⁻¹]
C10U G21U G62A	< 1e-05	–	< 1e-05
C8G G9U C10G	< 1e-05	–	–
G9U C10G G13C A48C C50U	< 1e-05	< 1e-05	–
G7U G41C C58A	< 1e-05	< 1e-05	–
C8U A42G A48C	< 1e-05	< 1e-05	–
C10A U69A	0.00013 ± 1.9e-05	3.89e-05 ± 1.5e-05	–
G9A G62U G66U	< 1e-05	< 1e-05	–
C11U U31C G41C U49C G62A	< 1e-05	–	–
C8U U49A U69G	0.000871 ± 0.00023	0.000796 ± 0.00037	–
C11U A15G C70U	0.000677 ± 0.00015	0.00215 ± 0.00061	–
C11U U30C G43A	< 1e-05	–	–
C8U C50G G51U U56C	< 1e-05	–	–
G9C A15U G26U G63C	< 1e-05	–	–
C10A C67G C70A	0.000293 ± 9.2e-05	–	–
C11A G37C U65G	< 1e-05	–	–
C8G G13A U56C	< 1e-05	–	–
C11G A14U A36U U46A C61G G63A	< 1e-05	< 1e-05	–
C10U C58G C67A	0.000107 ± 3.8e-05	–	–
G9C A53U C70A	< 1e-05	–	–
C8U A15C G32U	< 1e-05	< 1e-05	–
C11G C50A A52G	< 1e-05	–	–
C8U A12C U49A	< 1e-05	–	–
C8U A14C A15C	< 1e-05	–	–

Variant	self-cleavage kobs at 640 uM GlcN6P [1] [s⁻¹]	self-cleavage kobs at 2500 uM GlcN6P [2] [s⁻¹]	self-cleavage kobs at 10000 uM GlcN6P [3] [s⁻¹]
C8A U45C C67U	< 1e-05	–	–
C8U A14G A39G A53U U54G G63A	< 1e-05	< 1e-05	–
C8U A15C A33U G37C C71G	5.18e-05 ± 2.5e-05	–	–
C11G U31A U47C C61G	< 1e-05	< 1e-05	–
C8G C10U A48U	< 1e-05	< 1e-05	–
C11U A12C U31G G32U U57G	< 1e-05	–	–
C11U U47A A48C C61A C70U C71A	< 1e-05	< 1e-05	–
G9A G29A G63U	< 1e-05	< 1e-05	–
G9U U45G A52G	< 1e-05	–	–
C11A U46C	< 1e-05	–	–
G9C A15C G32U G40C G66C	< 1e-05	–	–
C11A A15U A64C	< 1e-05	< 1e-05	–
C8G C58A U65G C71A	< 1e-05	–	–
C8A G29C A36C G63A	< 1e-05	–	–
C10A U31A U56C	< 1e-05	< 1e-05	< 1e-05
C11U G13U A14G G38C	< 1e-05	–	–
C10G A12U U56G C71U	< 1e-05	–	–
C11U A53U C70G	0.000189 ± 5.3e-05	–	–
C8U A12U G51U	< 1e-05	< 1e-05	–
C10A A33G U45C G66A C70U	< 1e-05	< 1e-05	–
C11U A48G C68U	< 1e-05	–	–
